Experimental data: the RNAGym collection of RNA variant scans (doi:10.1073/pnas.2313332121)

B1: TPR t1 (parent)
chain: GACCAAUCUGCCCUCAGAGCUCGAGAACAUCUUCGGAUGCAGAGGAGGCAGGCUUCGGUGGCGCGAUAGCGCCAACGUCCUCAACCUCCAAUGCAUCCCACCACAUGAUGAUGCCUGAAGAGCCUUGGUUUUUUG

Variants of: B1
Assay: polymerase ribozyme fitness, log enrichment relative to wild type (log ratio); higher = more active; in vitro selection for triplet polymerase activity
Procedure, shortened: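 Input and output libraries were sequenced on Illumina after a single in vitro selection round, run in triplicate on PCR-built, transcribed mutant libraries of each subunit of a heterodimeric triplet polymerase ribozyme. Selection annealed libraries to a biotinylated primer, the partner subunit and triplets, incubated them frozen at −7 °C, then gel-excised extended constructs for streptavidin-bead capture and RT-PCR. Genotypes with ≥10 input reads and ≥1 read per output were kept. Fitness is the logarithm, taken in base 2, of genotype enrichment divided by wild-type enrichment, using inverse-variance-weighted replicate averages.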

Variant | polymerase ribozyme fitness (log ratio)
GACCAAUCUGCCCUCAGAGCUCGAGAACAUCUUCGGAUGCAGAGGAGGCAGGCUUCGGUGGCGCGAUAGCGCCAACGUCCUCAACCUCCAAUGCAUCCCACAACAUGAUGAUGCGUGAAGAGCCUUGGUUUUUUG [C102A C115G] | -3.72
GACCAAUCUGCCCUCAGAGCUCGAGAACAUCUUCGGAUGCAGAGGAGGCAGGCUUCGGUGGCGCGAUAGCGCCAACGUCCUCAACCUCCAAUGCAUCCCACAACAUGAUGAUGCCUGAAGAGCCUUGGUUUUUUU [C102A G135U] | -3.13
GACCAAUCUGCCCUCAGAGCUCGAGAACAUCUUCGGAUGCAGAGGAGGCAGGCUUCGGUGGCGCGAUAGCGCCAACGUCCUCAACCUCCAAUGCAUCCCACCUCAUGAUGAUGCCUGAAGAGCCUUGGUUUAUUG [A103U U132A] | -5.02
GACCAAUCUGCCCUCAGAGCUCGAGAACAUCUUCGGAUGCAGAGGAGGCAGGCUUCGGUGGCGCGAUAGCGCCAACGUCCUCAACCUCCAAUGCAUCCCACAACAUGAUGAUGCCUGAAGAGGCUUGGUUUUUUG [C102A C123G] | -0.232
GACCAAUCUGCCCUCAGAGCUCGAGAACAUCUUCGGAUGCAGAGGAGGCAGGCUUCGGUGGCGCGAUAGCGCCAACGUCCUCAACCUCCAAUGCAUCCCACCAUAUGAUGAUGCAUGAAGAGCCUUGGUUUUUUG [C104U C115A] | 0.0102
GACCAAUCUGCCCUCAGAGCUCGAGAACAUCUUCGGAUGCAGAGGAGGCAGGCUUCGGUGGCGCGAUAGCGCCAACGUCCUCAACCUCCAAUGCAUCCCACCAUAUGAUGAUGCGUGAAGAGCCUUGGUUUUUUG [C104U C115G] | -1.22
GACCAAUCUGCCCUCAGAGCUCGAGAACAUCUUCGGAUGCAGAGGAGGCAGGCUUCGGUGGCGCGAUAGCGCCAACGUCCUCAACCUCCAAUGCAUCCCAUCACAUCAUGAUGCCUGAAGAGCCUUGGUUUUUUG [C101U G107C] | -6.63
GACCAAUCUGCCCUCAGAGCUCGAGAACAUCUUCGGAUGCAGAGGAGGCAGGCUUCGGUGGCGCGAUAGCGCCAACGUCCUCAACCUCCAAUGCAUCCCACAACAUGAUGAUGCCUGAAGUGCCUUGGUUCUUUG [C102A A121U U131C] | 0.0525
GACCAAUCUGCCCUCAGAGCUCGAGAACAUCUUCGGAUGCAGAGGAGGCAGGCUUCGGUGGCGCGAUAGCGCCAACGUCCUCAACCUCCAAUGCAUCCCAUCACAUGAUGAUGCCCGAGGAGCCUUGGAUUUUUG [C101U U116C A119G U129A] | 1.01
GACCAAUCUGCCCUCAGAGCUCGAGAACAUCUUCGGAUGCAGAGGAGGCAGGCUUCGGUGGCGCGAUAGCGCCAACGUCCUCAACCUCCAAUGCAUCCCACGACAUGAUGAAGCCUGAAGAGCCUUGGUUUUUUG [C102G U112A] | -5.7
GACCAAUCUGCCCUCAGAGCUCGAGAACAUCUUCGGAUGCAGAGGAGGCAGGCUUCGGUGGCGCGAUAGCGCCAACGUCCUCAACCUCCAAUGCAUCCCACCUCAGGAUGAUGCCUGAAGAGCCUUGGUUUUUUG [A103U U106G] | -4.14
GACCAAUCUGCCCUCAGAGCUCGAGAACAUCUUCGGAUGCAGAGGAGGCAGGCUUCGGUGGCGCGAUAGCGCCAACGUCCUCAACCUCCAAUGCAUCCCACCGCAUGAUGAGGCCUGAAGAGCCUUGGUUUUUUG [A103G U112G] | -4.71
GACCAAUCUGCCCUCAGAGCUCGAGAACAUCUUCGGAUGCAGAGGAGGCAGGCUUCGGUGGCGCGAUAGCGCCAACGUCCUCAACCUCCAAUGCAUCCCACCAAAUGAUGAAGCCUGAAGAGCCUUGGUUUUUUG [C104A U112A] | 0.162
GACCAAUCUGCCCUCAGAGCUCGAGAACAUCUUCGGAUGCAGAGGAGGCAGGCUUCGGUGGCGCGAUAGCGCCAACGUCCUCAACCUCCAAUGCAUCCCACCAAAUGAUGAUGCCAGAAGAGCCUUGGUUUUUUG [C104A U116A] | -5.02
GACCAAUCUGCCCUCAGAGCUCGAGAACAUCUUCGGAUGCAGAGGAGGCAGGCUUCGGUGGCGCGAUAGCGCCAACGUCCUCAACCUCCAAUGCAUCCCACCCCAUAAUGAGACCUGAAGAGCCUUGGUUUUUUG [A103C G107A U112G G113A] | -6.72
GACCAAUCUGCCCUCAGAGCUCGAGAACAUCUUCGGAUGCAGAGGAGGCAGGCUUCGGUGGCGCGAUAGCGCCAACGUCCUCAACCUCCAAUGCAUCCCACCAUAUGAUGAUGCCUGAACAGCCUUGGUUUUUUG [C104U G120C] | 0.802
GACCAAUCUGCCCUCAGAGCUCGAGAACAUCUUCGGAUGCAGAGGAGGCAGGCUUCGGUGGCGCGAUAGCGCCAACGUCCUCAACCUCCAAUGCAUCCCACCAGAUGAUGAUCCCUGAAGAGCCUUGGUUUUUUG [C104G G113C] | -6.7
GACCAAUCUGCCCUCAGAGCUCGAGAACAUCUUCGGAUGCAGAGGAGGCAGGCUUCGGUGGCGCGAUAGCGCCAACGUCCUCAACCUCCAAUGCAUCCCACCAUAUGAUAAUGCCUGAAGAGCCUUGGUUUUUUG [C104U G110A] | -0.458
GACCAAUCUGCCCUCAGAGCUCGAGAACAUCUUCGGAUGCAGAGGAGGCAGGCUUCGGUGGCGCGAUAGCGCCAACGUCCUCAACCUCCAAUGCAUCCCAUCACAUGAUGAUGCCUCAAGAGCCUUGGUUUUUUG [C101U G117C] | -3.39
GACCAAUCUGCCCUCAGAGCUCGAGAACAUCUUCGGAUGCAGAGGAGGCAGGCUUCGGUGGCGCGAUAGCGCCAACGUCCUCAACCUCCAAUGCAUCCCACUACAUGAUGAUGCCUGAGGAGCCUUGGUUUUUUG [C102U A119G] | -0.237
GACCAAUCUGCCCUCAGAGCUCGAGAACAUCUUCGGAUGCAGAGGAGGCAGGCUUCGGUGGCGCGAUAGCGCCAACGUCCUCAACCUCCAAUGCAUCCCACCCAAUGAUGAUGCCUGAAGAGCCUUGGUUUUUUG [A103C C104A] | -2.67

Variant | polymerase ribozyme fitness (log ratio)
GACCAAUCUGCCCUCAGAGCUCGAGAACAUCUUCGGAUGCAGAGGAGGCAGGCUUCGGUGGCGCGAUAGCGCCAACGUCCUCAACCUCCAAUGCAUCCCACCAUAAGAUGAUGCCUGAAGAGCCUUGGUUUUUUG [C104U U106A] | -0.522
GACCAAUCUGCCCUCAGAGCUCGAGAACAUCUUCGGAUGCAGAGGAGGCAGGCUUCGGUGGCGCGAUAGCGCCAACGUCCUCAACCUCCAAUGCAUCCCAUCACAUGAUGAUGCCUGAAGGGCCUAGGUUUUUUG [C101U A121G U126A] | 1.07
GACCAAUCUGCCCUCAGAGCUCGAGAACAUCUUCGGAUGCAGAGGAGGCAGGCUUCGGUGGCGCGAUAGCGCCAACGUCCUCAACCUCCAAUGCAUCCCAUCACAUGAUGAAGCCUGAAGAGCCUUGGUUUUUUG [C101U U112A] | 0.284
GACCAAUCUGCCCUCAGAGCUCGAGAACAUCUUCGGAUGCAGAGGAGGCAGGCUUCGGUGGCGCGAUAGCGCCAACGUCCUCAACCUCCAAUGCAUCCCAUCACAUGAUGACGCCUGAAGAGCCUUGGUUUUUUG [C101U U112C] | 0.493
GACCAAUCUGCCCUCAGAGCUCGAGAACAUCUUCGGAUGCAGAGGAGGCAGGCUUCGGUGGCGCGAUAGCGCCAACGUCCUCAACCUCCAAUGCAUCCCACCAAAUGAUGAUGCCUGAAGAACCUUGGUUUUUUG [C104A G122A] | -2.31
GACCAAUCUGCCCUCAGAGCUCGAGAACAUCUUCGGAUGCAGAGGAGGCAGGCUUCGGUGGCGCGAUAGCGCCAACGUCCUCAACCUCCAAUGCAUCCCACUACAUGAUGAUGCCUGAAGGGCCUUGGUUUUUUG [C102U A121G] | 0.0036
GACCAAUCUGCCCUCAGAGCUCGAGAACAUCUUCGGAUGCAGAGGAGGCAGGCUUCGGUGGCGCGAUAGCGCCAACGUCCUCAACCUCCAAUGCAUCCCACCAGAAGAUGAUGCCUGAAGAGCGUUGGUUUUUUG [C104G U106A C124G] | -3.47
GACCAAUCUGCCCUCAGAGCUCGAGAACAUCUUCGGAUGCAGAGGAGGCAGGCUUCGGUGGCGCGAUAGCGCCAACGUCCUCAACCUCCAAUGCAUCCCAUCACAUGAGGUUGCCUGAAGAGCCUUGGUUUUUUG [C101U U109G A111U] | -4.63
GACCAAUCUGCCCUCAGAGCUCGAGAACAUCUUCGGAUGCAGAGGAGGCAGGCUUCGGUGGCGCGAUAGCGCCAACGUCCUCAACCUCCAAUGCAUCCCACAACAUGAUGAUGCCUGAAUAGCCUUGGUGUUUUG [C102A G120U U130G] | -2.39
GACCAAUCUGCCCUCAGAGCUCGAGAACAUCUUCGGAUGCAGAGGAGGCAGGCUUCGGUGGCGCGAUAGCGCCAACGUCCUCAACCUCCAAUGCAUCCCACAACAUGAUGAUGCCUGAAGAGCCGUGGUUUUUUG [C102A U125G] | -2.8
GACCAAUCUGCCCUCAGAGCUCGAGAACAUCUUCGGAUGCAGAGGAGGCAGGCUUCGGUGGCGCGAUAGCGCCAACGUCCUCAACCUCCAAUGCAUCCCAUCACAUGUGGAUGCCUGAAGAGCCUUGGUUUUUUG [C101U A108U U109G] | -6.14
GACCAAUCUGCCCUCAGAGCUCGAGAACAUCUUCGGAUGCAGAGGAGGCAGGCUUCGGUGGCGCGAUAGCGCCAACGUCCUCAACCUCCAAUGCAUCCCACCAAAUGGUGAAGCCUGGAGAUCCUUGGUUUUUUG [C104A A108G U112A A118G G122U] | -5.36
GACCAAUCUGCCCUCAGAGCUCGAGAACAUCUUCGGAUGCAGAGGAGGCAGGCUUCGGUGGCGCGAUAGCGCCAACGUCCUCAACCUCCAAUGCAUCCCAUCACAUGAUGAUGCCUGAAGAGCCUUGGUUUUUUU [C101U G135U] | -1.68
GACCAAUCUGCCCUCAGAGCUCGAGAACAUCUUCGGAUGCAGAGGAGGCAGGCUUCGGUGGCGCGAUAGCGCCAACGUCCUCAACCUCCAAUGCAUCCCACCCCAUGAUGAUGCCUGAAGAGCCUUGGUUUAUUG [A103C U132A] | -4.12
GACCAAUCUGCCCUCAGAGCUCGAGAACAUCUUCGGAUGCAGAGGAGGCAGGCUUCGGUGGCGCGAUAGCGCCAACGUCCUCAACCUCCAAUGCAUCCCACCGCAUGAUGAUGCUUGAAGAGCCUUGGGUUUAUG [A103G C115U U129G U133A] | -5.83
GACCAAUCUGCCCUCAGAGCUCGAGAACAUCUUCGGAUGCAGAGGAGGCAGGCUUCGGUGGCGCGAUAGCGCCAACGUCCUCAACCUCCAAUGCAUCCCAUCACAAGAUGAUGCCUGAAGAGCCUUGGUUUUUUG [C101U U106A] | -0.286
GACCAAUCUGCCCUCAGAGCUCGAGAACAUCUUCGGAUGCAGAGGAGGCAGGCUUCGGUGGCGCGAUAGCGCCAACGUCCUCAACCUCCAAUGCAUCCCAUCACAUGAUCAUGCCUGAAGAGCCUUGGUUUUUUG [C101U G110C] | -3.42
GACCAAUCUGCCCUCAGAGCUCGAGAACAUCUUCGGAUGCAGAGGAGGCAGGCUUCGGUGGCGCGAUAGCGCCAACGUCCUCAACCUCCAAUGCAUCCCACCCCAUGAUGAUGCCUGAAGAGAAUUGGUUUUUUG [A103C C123A C124A] | -3.52
GACCAAUCUGCCCUCAGAGCUCGAGAACAUCUUCGGAUGCAGAGGAGGCAGGCUUCGGUGGCGCGAUAGCGCCAACGUCCUCAACCUCCAAUGCAUCCCACAACAUGAUGAUGCCUGAAGAGCCUUGGUAUUUUG [C102A U130A] | -3.46
GACCAAUCUGCCCUCAGAGCUCGAGAACAUCUUCGGAUGCAGAGGAGGCAGGCUUCGGUGGCGCGAUAGCGCCAACGUCCUCAACCUCCAAUGCAUCCCACCUCAUGAUGAUACCUGAAGAGCCUUGGUUUUUUG [A103U G113A] | -3.81
GACCAAUCUGCCCUCAGAGCUCGAGAACAUCUUCGGAUGCAGAGGAGGCAGGCUUCGGUGGCGCGAUAGCGCCAACGUCCUCAACCUCCAAUGCAUCCCACCAUAUGAUGAUCCCUGAAGAGACUUGGUUUUUUG [C104U G113C C123A] | -3.61
